This is an account of results in FireProtDB (doi:10.1016/j.csbj.2015.03.010).

The conditions of the data set: Aspergillus aculeatus; pH 4.5; Thermal; DSC; sodium acetate buffer 50 mM; transition: 2; reversible: no; whole UniProt chain shown.

B1: Arabinogalactan endo-beta-1,4-galactanase wild type, P48842 (protein)
chain: MFASLLLAALPLLTHAALTYRGADISSLLLLEDEGYSYKNLNGQTQALETILADAGINSIRQRVWVNPSDGSYDLDYNLELAKRVKAAGMSLYLDLHLSDTWADPSDQTTPSGWSTTDLGTLKWQLYNYTLEVCNTFAENDIDIEIISIGNEIRAGLLWPLGETSSYSNIGALLHSGAWGVKDSNLATTPKIMIHLDDGWSWDQQNYFYETVLATGELLSTDFDYFGVSYYPFYSASATLASLKTSLANLQSTYDKPVVVVETNWPVSCPNPAYAFPSDLSSIPFSVAGQQEFLEKLAAVVEATTDGLGVYYWEPAWIGNAGLGSSCADNLMVDYTTDEVYESIETLGEL
The Tm is the temperature at which the thermal transition is half complete. With B1, the Tm turned out to be 60.9 °C.
